Kd data for 15 molecules are collected here from PMC10996005 (2024).

The target of assay [1] is T1, HIF-1α PAS-B (Homo sapiens, UniProt Q16665). In words: MST.
Assay [2] concerns the target HIF-2α PAS-B (Homo sapiens, UniProt Q99814). In words: MST.
Target sequence in this assay (Q99814 240-350 G323E): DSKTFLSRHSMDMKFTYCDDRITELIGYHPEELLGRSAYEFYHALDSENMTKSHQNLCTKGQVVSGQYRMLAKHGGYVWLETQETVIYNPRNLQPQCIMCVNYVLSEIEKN
The target is the same in assay [3]. In words: MST. This is another data set of the same source.
Target sequence in this assay (Q99814 240-350): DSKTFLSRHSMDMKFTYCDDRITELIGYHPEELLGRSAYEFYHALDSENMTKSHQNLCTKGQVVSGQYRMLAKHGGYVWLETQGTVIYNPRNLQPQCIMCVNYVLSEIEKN
Assay [4] addresses T1, HIF-1α PAS-B. Description: FP.

The term Kd denotes the concentration at which binding is half-saturated. A low value points to a tighter complex.

*1 amine or outer side, *2 acyl side, *3 side chain or, on linkers, in order; H or OH if unused. [ ]: non-standard residue; d: D form. Phe(4-OMe) = COc1ccc(C[C@H](N[*:1])C(=O)[*:2])cc1; Phe(4-I) = N[C@@H](Cc1ccc(I)cc1)C(=O)O; 1Nal = N[C@@H](Cc1cccc2ccccc12)C(=O)O; hPhe = N[C@@H](CCc1ccccc1)C(=O)O; 4Pal = N[C@@H](Cc1ccncc1)C(=O)O; Phg = N[C@H](C(=O)O)c1ccccc1

T1 sequence (Q16665 238-349): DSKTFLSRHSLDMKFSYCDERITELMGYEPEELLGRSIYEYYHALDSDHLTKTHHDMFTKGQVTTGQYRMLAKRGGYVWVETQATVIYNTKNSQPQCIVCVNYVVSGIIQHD

CRLIIF (head-to-tail cyclic peptide): binding in assay [1] was characterised by a dissociation constant (Kd) of 3.8 µM.

B1: cyclo-CRLII(Phg) (peptide)
chain: cyclo(CRLII[Phg])
SMILES: CC[C@H](C)[C@@H]1NC(=O)[C@H](CC(C)C)NC(=O)[C@H](CCCNC(=N)N)NC(=O)[C@H](CS)NC(=O)[C@H](c2ccccc2)NC(=O)[C@H]([C@@H](C)CC)NC1=O
The molecule B1 yielded a Kd in assay [1] of 5.8 µM.

B2: cyclo-CRLII(D-F) (peptide)
chain: cyclo(CRLII[dF])
SMILES: CC[C@H](C)[C@@H]1NC(=O)[C@H](CC(C)C)NC(=O)[C@H](CCCNC(=N)N)NC(=O)[C@H](CS)NC(=O)[C@@H](Cc2ccccc2)NC(=O)[C@H]([C@@H](C)CC)NC1=O
In assay [1], B2 gave a Kd of 6.2 µM.

B3: cyclo-CRLII(4-iodo)F (peptide)
chain: cyclo(CRLII[Phe(4-I)])
SMILES: CC[C@H](C)[C@@H]1NC(=O)[C@H](CC(C)C)NC(=O)[C@H](CCCNC(=N)N)NC(=O)[C@H](CS)NC(=O)[C@H](Cc2ccc(I)cc2)NC(=O)[C@H]([C@@H](C)CC)NC1=O
B3 had a Kd in assay [2] of 7.2 µM.
For CKLIIF (head-to-tail cyclic peptide) [cyclo-CKLIIF], the Kd is 2.2 µM in assay [3] and 2.6 µM in assay [1].

B4: cyclo-CRLII(4-Pal) (peptide)
chain: cyclo(CRLII[4Pal])
SMILES: CC[C@H](C)[C@@H]1NC(=O)[C@H](CC(C)C)NC(=O)[C@H](CCCNC(=N)N)NC(=O)[C@H](CS)NC(=O)[C@H](Cc2ccncc2)NC(=O)[C@H]([C@@H](C)CC)NC1=O
In turn, B4 gave a Kd in assay [1] of 39.6 µM.

B5: cyclo-CRLII(1-Nal) (peptide)
chain: cyclo(CRLII[1Nal])
SMILES: CC[C@H](C)[C@@H]1NC(=O)[C@H](CC(C)C)NC(=O)[C@H](CCCNC(=N)N)NC(=O)[C@H](CS)NC(=O)[C@H](Cc2cccc3ccccc23)NC(=O)[C@H]([C@@H](C)CC)NC1=O
The molecule B5 had a Kd in assay [1] of 1.7 µM.

B6: cyclo-CRLII(hF) (peptide)
chain: cyclo(CRLII[hPhe])
SMILES: CC[C@H](C)[C@@H]1NC(=O)[C@H](CC(C)C)NC(=O)[C@H](CCCNC(=N)N)NC(=O)[C@H](CS)NC(=O)[C@H](CCc2ccccc2)NC(=O)[C@H]([C@@H](C)CC)NC1=O
The molecule B6 gave a Kd in assay [1] of 1.2 µM.
For CRVIIF (head-to-tail cyclic peptide) [cyclo-CRVIIF], the Kd in assay [3] was found to be 123 µM; in assay [1] it was 65 µM.
In assay [1], cyclo(CRLII[Phe(4-OMe)]) [cyclo-CRLII(4-OMe)F] came in with a Kd of 11.2 µM.
cyclo(CRLIIF) (also: Cy5-labeled HIF-1α) displayed a Kd in assay [4] of 4.6 µM. This counts as single-digit micromolar.
The molecule cyclo(CRLII[Phe(4-Bz)]) [cyclo-CRLII(4-Bz)F] returned a Kd in assay [1] of 1.6 µM.

B7: cyclo-CRLII(4-iodo)F (peptide)
chain: cyclo(CRLII[Phe(4-I)])
SMILES: CC[C@H](C)[C@@H]1NC(=O)[C@H](CC(C)C)NC(=O)[C@H](CCCNC(=N)N)NC(=O)[C@H](CS)NC(=O)[C@H](Cc2ccc(I)cc2)NC(=O)[C@H]([C@@H](C)CC)NC1=O
As to B7, the Kd in assay [3] came out at 1.7 µM; in assay [1], 0.821 µM.
As for CRLLIF (head-to-tail cyclic peptide) [cyclo-CRLLIF], the Kd in assay [3] was determined as 10.2 µM; in assay [1], 14.5 µM.
Turning to CKLLIF (head-to-tail cyclic peptide) [cyclo-CKLLIF], the Kd in assay [1] turned out to be 12 µM. In other words, the double-digit micromolar range.
